Laboratory results as given in publication PMC7367873, “Dissecting the sequence determinants for dephosphorylation by the catalytic subunits of phosphatases PP1 and PP2A” (Nature Communications, 2020).

B1: NAP1L1 (protein, UniProt P55209 2-388, looked up)
Nucleosome assembly protein …: ADIDNKEQSELDQDLDDVEEVEEEETGEETKLKARQLTVQMMQNPQILAALQERLDGLVETPTGYIESLPRVVKRRVNALKNLQVKCAQIEAKFYEEVHDLERKYAVLYQPLFDKRFEIINAIYEPTEEECEWKPDEEDEISEELKEKAKIEDEKKDEEKEDPKGIPEFWLTVFKNVDLLSDMVQEHDEPILKHLKDIKVKFSDAGQPMSFVLEFHFEPNEYFTNEVLTKTYRMRSEPDDSDPFSFDGPEIMGCTGCQIDWKKGKNVTLKTIKKKQKHKGRGTVRTVTKTVSNDSFFNFFAPPEVPESGDLDDDAEAILAADFEIGHFLRERIIPRSVLYFTGEAIEDDDDDYDEEGEEADEEGEEEGDEENDPDYDPKKDQNPAEC
B2: EEF1A1P5;EEF1A1 (protein, UniProt P68104 2-462, looked up)
Elongation factor 1-alpha 1: GKEKTHINIVVIGHVDSGKSTTTGHLIYKCGGIDKRTIEKFEKEAAEMGKGSFKYAWVLDKLKAERERGITIDISLWKFETSKYYVTIIDAPGHRDFIKNMITGTSQADCAVLIVAAGVGEFEAGISKNGQTREHALLAYTLGVKQLIVGVNKMDSTEPPYSQKRYEEIVKEVSTYIKKIGYNPDTVAFVPISGWNGDNMLEPSANMPWFKGWKVTRKDGNASGTTLLEALDCILPPTRPTDKPLRLPLQDVYKIGGIGTVPVGRVETGVLKPGMVVTFAPVNVTTEVKSVEMHHEALSEALPGDNVGFNVKNVSVKDVRRGNVAGDSKNDPPMEAAGFTAQVIILNHPGQISAGYAPVLDCHTAHIACKFAELKEKIDRRSGKKLEDGPKFLKSGDAAIVDMVPGKPMCVESFSDYPPLGRFAVRDMRQTVAVGVIKAVDKKAAGAGKVTKSAQKAQKAK
B3: HNRNPM (protein, UniProt P52272 2-730, looked up)
Heterogeneous nuclear …: AAGVEAAAEVAATEIKMEEESGAPGVPSGNGAPGPKGEGERPAQNEKRKEKNIKRGGNRFEPYANPTKRYRAFITNIPFDVKWQSLKDLVKEKVGEVTYVELLMDAEGKSRGCAVVEFKMEESMKKAAEVLNKHSLSGRPLKVKEDPDGEHARRAMQKVMATTGGMGMGPGGPGMITIPPSILNNPNIPNEIIHALQAGRLGSTVFVANLDYKVGWKKLKEVFSMAGVVVRADILEDKDGKSRGIGTVTFEQSIEAVQAISMFNGQLLFDRPMHVKMDERALPKGDFFPPERPQQLPHGLGGIGMGLGPGGQPIDANHLNKGIGMGNIGPAGMGMEGIGFGINKMGGMEGPFGGGMENMGRFGSGMNMGRINEILSNALKRGEIIAKQGGGGGGGSVPGIERMGPGIDRLGGAGMERMGAGLGHGMDRVGSEIERMGLVMDRMGSVERMGSGIERMGPLGLDHMASSIERMGQTMERIGSGVERMGAGMGFGLERMAAPIDRVGQTIERMGSGVERMGPAIERMGLSMERMVPAGMGAGLERMGPVMDRMATGLERMGANNLERMGLERMGANSLERMGLERMGANSLERMGPAMGPALGAGIERMGLAMGGGGGASFDRAIEMERGNFGGSFAGSFGGAGGHAPGVARKACQIFVRNLPFDFTWKMLKDKFNECGHVLYADIKMENGKSKGCGVVKFESPEVAERACRMMNGMKLSGREIDVRIDRNA
B4: TSR1 (protein, UniProt Q2NL82 1-804, looked up)
Pre-rRNA-processing protein …: MAAHRPGPLKQQNKAHKGGRHRGRGSAQRDGKGRLALKTLSKKVRKELSRVDQRHRASQLRKQKKEAVLAEKRQLGGKDGPPHQVLVVPLHSRISLPEAMQLLQDRDTGTVHLNELGNTQNFMLLCPRLKHRWFFTSARPGDLHVVLDMAKVADTILFLLDPLEGWDSTGDYCLSCLFAQGLPTYTLAVQGISGLPLKKQIDTRKKLSKAVEKRFPHDKLLLLDTQQEAGMLLRQLANQKQQHLAFRDRRAYLFAHAVDFVPSEENNLVGTLKISGYVRGQTLNVNRLLHIVGYGDFQMKQIDAPGDPFPLNPRGIKPQKDPDMAMEICATDAVDDMEEGLKVLMKADPGRQESLQAEVIPDPMEGEQTWPTEEELSEAKDFLKESSKVVKKVPKGTSSYQAEWILDGGSQSGGEGDEYEYDDMEHEDFMEEESQDESSEEEEEYETMTIGESVHDDLYDKKVDEEAEAKMLEKYKQERLEEMFPDEVDTPRDVAARIRFQKYRGLKSFRTSPWDPKENLPQDYARIFQFQNFTNTRKSIFKEVEEKEVEGAEVGWYVTLHVSEVPVSVVECFRQGTPLIAFSLLPHEQKMSVLNMVVRRDPGNTEPVKAKEELIFHCGFRRFRASPLFSQHTAADKHKLQRFLTADMALVATVYAPITFPPASVLLFKQKSNGMHSLIATGHLMSVDPDRMVIKRVVLSGHPFKIFTKMAVVRYMFFNREDVLWFKPVELRTKWGRRGHIKEPLGTHGHMKCSFDGKLKSQDTVLMNLYKRVFPKWTYDPYVPEPVPWLKSEISSTVPQGGME
B5: LYPD3 (protein, UniProt O95274 31-326, looked up)
Ly6/PLAUR domain-containing …: LECYSCVQKADDGCSPNKMKTVKCAPGVDVCTEAVGAVETIHGQFSLAVRGCGSGLPGKNDRGLDLHGLLAFIQLQQCAQDRCNAKLNLTSRALDPAGNESAYPPNGVECYSCVGLSREACQGTSPPVVSCYNASDHVYKGCFDGNVTLTAANVTVSLPVRGCVQDEFCTRDGVTGPGFTLSGSCCQGSRCNSDLRNKTYFSPRIPPLVRLPPPEPTTVASTTSVTTSTSAPVRPTSTTKPMPAPTSQTPRQGVEHEASRDEEPRLTGGAAGHQDRSNSGQYPAKGGPQQPHNKGC
B6: SOAT1 (protein, UniProt P35610 1-550, looked up)
Sterol O-acyltransferase 1: MVGEEKMSLRNRLSKSRENPEEDEDQRNPAKESLETPSNGRIDIKQLIAKKIKLTAEAEELKPFFMKEVGSHFDDFVTNLIEKSASLDNGGCALTTFSVLEGEKNNHRAKDLRAPPEQGKIFIARRSLLDELLEVDHIRTIYHMFIALLILFILSTLVVDYIDEGRLVLEFSLLSYAFGKFPTVVWTWWIMFLSTFSVPYFLFQHWATGYSKSSHPLIRSLFHGFLFMIFQIGVLGFGPTYVVLAYTLPPASRFIIIFEQIRFVMKAHSFVRENVPRVLNSAKEKSSTVPIPTVNQYLYFLFAPTLIYRDSYPRNPTVRWGYVAMKFAQVFGCFFYVYYIFERLCAPLFRNIKQEPFSARVLVLCVFNSILPGVLILFLTFFAFLHCWLNAFAEMLRFGDRMFYKDWWNSTSYSNYYRTWNVVVHDWLYYYAYKDFLWFFSKRFKSAAMLAVFAVSAVVHEYALAVCLSFFYPVLFVLFMFFGMAFNFIVNDSRKKPIWNVLMWTSLFLGNGVLLCFYSQEWYARQHCPLKNPTFLDYVRPRSWTCRYVF
B7: DNAJC10 (protein, UniProt Q8IXB1 33-793, looked up)
DnaJ homolog subfamily C …: DQDFYSLLGVSKTASSREIRQAFKKLALKLHPDKNPNNPNAHGDFLKINRAYEVLKDEDLRKKYDKYGEKGLEDNQGGQYESWNYYRYDFGIYDDDPEIITLERREFDAAVNSGELWFVNFYSPGCSHCHDLAPTWRDFAKEVDGLLRIGAVNCGDDRMLCRMKGVNSYPSLFIFRSGMAPVKYHGDRSKESLVSFAMQHVRSTVTELWTGNFVNSIQTAFAAGIGWLITFCSKGGDCLTSQTRLRLSGMLDGLVNVGWMDCATQDNLCKSLDITTSTTAYFPPGATLNNKEKNSILFLNSLDAKEIYLEVIHNLPDFELLSANTLEDRLAHHRWLLFFHFGKNENSNDPELKKLKTLLKNDHIQVGRFDCSSAPDICSNLYVFQPSLAVFKGQGTKEYEIHHGKKILYDILAFAKESVNSHVTTLGPQNFPANDKEPWLVDFFAPWCPPCRALLPELRRASNLLYGQLKFGTLDCTVHEGLCNMYNIQAYPTTVVFNQSNIHEYEGHHSAEQILEFIEDLMNPSVVSLTPTTFNELVTQRKHNEVWMVDFYSPWCHPCQVLMPEWKRMARTLTGLINVGSIDCQQYHSFCAQENVQRYPEIRFFPPKSNKAYHYHSYNGWNRDAYSLRIWGLGFLPQVSTDLTPQTFSEKVLQGKNHWVIDFYAPWCGPCQNFAPEFELLARMIKGKVKAGKVDCQAYAQTCQKAGIRAYPTVKFYFYERAKRNFQEEQINTRDAKAIAALISEKLETLRNQGKRNKDEL
B8: SPECC1 (protein, UniProt Q5M775 1-1068, looked up)
Cytospin-B: MRSAAKPWNPAIRAGGHGPDRVRPLPAASSGMKSSKSSTSLAFESRLSRLKRASSEDTLNKPGSTAASGVVRLKKTATAGAISELTESRLRSGTGAFTTTKRTGIPAPREFSVTVSRERSVPRGPSNPRKSVSSPTSSNTPTPTKHLRTPSTKPKQENEGGEKAALESQVRELLAEAKAKDSEINRLRSELKKYKEKRTLNAEGTDALGPNVDGTSVSPGDTEPMIRALEEKNKNFQKELSDLEEENRVLKEKLIYLEHSPNSEGAASHTGDSSCPTSITQESSFGSPTGNQMSSDIDEYKKNIHGNALRTSGSSSSDVTKASLSPDASDFEHITAETPSRPLSSTSNPFKSSKCSTAGSSPNSVSELSLASLTEKIQKMEENHHSTAEELQATLQELSDQQQMVQELTAENEKLVDEKTILETSFHQHRERAEQLSQENEKLMNLLQERVKNEEPTTQEGKIIELEQKCTGILEQGRFEREKLLNIQQQLTCSLRKVEEENQGALEMIKRLKEENEKLNEFLELERHNNNMMAKTLEECRVTLEGLKMENGSLKSHLQGEKQKATEASAVEQTAESCEVQEMLKVARAEKDLLELSCNELRQELLKANGEIKHVSSLLAKVEKDYSYLKEICDHQAEQLSRTSLKLQEKASESDAEIKDMKETIFELEDQVEQHRAVKLHNNQLISELESSVIKLEEQKSDLERQLKTLTKQMKEETEEWRRFQADLQTAVVVANDIKCEAQQELRTVKRKLLEEEEKNARLQKELGDVQGHGRVVTSRAAPPPVDEEPESSEVDAAGRWPGVCVSRTSPTPPESATTVKSLIKSFDLGRPGGAGQNISVHKTPRSPLSGIPVRTAPAAAVSPMQRHSTYSSVRPASRGVTQRLDLPDLPLSDILKGRTETLKPDPHLRKSPSLESLSRPPSLGFGDTRLLSASTRAWKPQSKLSVERKDPLAALAREYGGSKRNALLKWCQKKTQGYANIDITNFSSSWSDGLAFCALLHTYLPAHIPYQELNSQEKKRNLLLAFEAAESVGIKPSLELSEMLYTDRPDWQSVMQYVAQIYKYFET
B9: PHF6 (protein, UniProt Q8IWS0 2-365, looked up)
PHD finger protein 6: SSSVEQKKGPTRQRKCGFCKSNRDKECGQLLISENQKVAAHHKCMLFSSALVSSHSDNESLGGFSIEDVQKEIKRGTKLMCSLCHCPGATIGCDVKTCHRTYHYHCALHDKAQIREKPSQGIYMVYCRKHKKTAHNSEADLEESFNEHELEPSSPKSKKKSRKGRPRKTNFKGLSEDTRSTSSHGTDEMESSSYRDRSPHRSSPSDTRPKCGFCHVGEEENEARGKLHIFNAKKAAAHYKCMLFSSGTVQLTTTSRAEFGDFDIKTVLQEIKRGKRMKCTLCSQPGATIGCEIKACVKTYHYHCGVQDKAKYIENMSRGIYKLYCKNHSGNDERDEEDEERESKSRGKVEIDQQQLTQQQLNGN

System: GFP-14-3-3β
Assay: GFP-14-3-3β co-IP with LC-MS/MS, untreated GFP-14-3-3β versus GFP control (14-3-3 interactome)
Assay type: binding, human
Details: log2 difference; pairwise comparison untreated vs GFP, label-free quantification, 3 replicates each

Molecule	Difference (log2), untreated vs GFP
B1	-0.3295

Same assay, conditions: pairwise comparison untreated vs GFP

Molecule	Difference (log2), untreated vs GFP [log2]
B2	-0.241
B3	0.1311
B4	1.267
B5	-0.7562
B6	0.443
B7	0.1892
B8	0.2064
B9	0.8956

System: GFP-14-3-3β and its binding proteins
Assay: GFP-14-3-3β co-IP with LC-MS/MS label-free quantification, untreated versus PP1c-treated
Design: species or system human
Details: log2 difference; pairwise comparison PP1 vs untreated, label-free quantification, 3 replicates each

Molecule	Difference (log2), PP1 vs untreated
B1	1.883

Same assay, conditions: pairwise comparison PP1 vs untreated

Molecule	Difference (log2), PP1 vs untreated [log2]
B2	0.02225
B3	-0.01052
B4	0.01439
B5	0.03143
B6	0.06363
B7	-0.01679
B8	-0.005819
B9	0.0136
